pKd: −log10 of the molar value. Read-outs that look alike come from different tables or passages of the source.

The target of this test is T1, ApoER2 (Homo sapiens, UniProt Q14114).
T1 construct: purchased R&D 3520‐AR
T1 sequence (Q14114 33-963): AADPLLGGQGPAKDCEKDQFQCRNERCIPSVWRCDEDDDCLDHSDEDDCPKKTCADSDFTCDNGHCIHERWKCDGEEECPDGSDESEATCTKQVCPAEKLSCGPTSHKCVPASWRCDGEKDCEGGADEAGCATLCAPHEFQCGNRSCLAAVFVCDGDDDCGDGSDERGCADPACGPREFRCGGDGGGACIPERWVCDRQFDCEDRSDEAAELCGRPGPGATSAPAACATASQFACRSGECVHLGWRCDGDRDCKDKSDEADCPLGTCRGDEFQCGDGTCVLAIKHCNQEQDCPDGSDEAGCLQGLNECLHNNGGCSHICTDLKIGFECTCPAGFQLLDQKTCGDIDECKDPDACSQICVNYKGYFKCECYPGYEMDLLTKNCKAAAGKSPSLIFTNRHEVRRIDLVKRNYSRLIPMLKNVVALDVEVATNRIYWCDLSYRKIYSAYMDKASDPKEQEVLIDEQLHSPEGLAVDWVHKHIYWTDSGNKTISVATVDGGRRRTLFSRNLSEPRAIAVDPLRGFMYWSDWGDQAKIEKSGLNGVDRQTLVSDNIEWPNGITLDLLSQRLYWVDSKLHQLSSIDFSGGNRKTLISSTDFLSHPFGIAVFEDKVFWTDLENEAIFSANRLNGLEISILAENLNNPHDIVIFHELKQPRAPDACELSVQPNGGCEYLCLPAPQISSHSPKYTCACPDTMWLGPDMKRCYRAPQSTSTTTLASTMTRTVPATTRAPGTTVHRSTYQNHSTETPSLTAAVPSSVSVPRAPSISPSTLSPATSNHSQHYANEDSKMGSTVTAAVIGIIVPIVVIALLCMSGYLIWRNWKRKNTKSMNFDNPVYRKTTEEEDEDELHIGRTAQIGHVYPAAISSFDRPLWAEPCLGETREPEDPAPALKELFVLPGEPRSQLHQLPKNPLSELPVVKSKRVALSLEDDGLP
Kind of test: Biolayer interferometry (BLI) binding of ApoER2 and sclerostin / sclerostin loop2. How it is done: The interaction of full‐length (FL)/truncated ApoER2 with full‐length (FL) /truncated sclerostin in macrophages (RAW264.7) were determined by pull‐down assay and Co‐IP assay. The binding affinity of ApoER2 to FL sclerostin and sclerostin loop2 were determined by biolayer interferometry (BLI) analysis. Moreover, the binding of sclerostin to ApoER2 on macrophages (RAW264.7) was examined by confocal microscopy.
Biolayer interferometry (BLI) analysis was performed on the Biomolecular Interaction Analyzer (ForteBio, Octet RED96e). To determine the binding affinity between ApoER2 and sclerostin, the ApoER2 protein (R&D, 3520‐AR) was biotinylated using 10 mM EZ‐Link Sulfo‐NHS‐LC‐LC‐Biotin (Thermo Scientific, 21 343) in a molar ratio of 1:20 for 2 h at 4 °C. The Slide‐A‐Lyzer Dialysis Cassettes (Thermo Scientific, 66 382) were used for excess biotin removal.^[ [61] ^] […] (SA) tray biosensors (Sartorius, 18‐5019) were used to load biotin‐ApoER2 proteins. Biosensors were pre‐wet for 10 min using 200 µL PBS containing 0.02% Tween 20 (v/v) in a 96‐well plate. […] Raw data were analyzed using Data Analysis Software (ForteBio, v8.1). All Kd values were calculated after deducting the non‐specific binding between the biosensors and the samples.^[ [62], [63] ^]

One may read the pKd as the Kd on a negative log10 scale, so that one unit is a factor of ten. On to “sclerostin: recombinant human/mouse full‐length sclerostin protein”, for which the pKd was 8.68 (Figure S6B, Sclerostin – ApoER2, read-out: Kd, binding of sclerostin to ApoER2) and 8.42 (Octet RED96e, biotin‐ApoER2 on streptavidin biosensors or His‐ApoER2 on HIS1K biosensors, non‐specific binding deducted, Figure 6B, read-out: Kd, binding of ApoER2 to sclerostin or sclerostin loop2).

Source of the values: article PMC12884772, “Macrophagic Sclerostin Loop2‐ApoER2 Interaction Required by Sclerostin for Cardiovascular Protective Action” (Advanced Science, 2025).
